Assay results published in article PMC4534193, “Binding of the Lactococcal Drug Dependent Transcriptional Regulator LmrR to Its Ligands and Responsive Promoter Regions” (PLoS ONE, 2015).

Columns and labels:
[1] = target: T1, LmrR-Strep (Lactococcus lactis) (UniProt A2RI36); assay: MST; settings: MST: 20 mM Tris-HCl pH 8.0, 1 mM EDTA, 50 nM Cy5-DNA, 30 min incubation at 30 C; 30% LED, 40% laser power (30% laser for PlmrR); Hill fit
T1 sequence: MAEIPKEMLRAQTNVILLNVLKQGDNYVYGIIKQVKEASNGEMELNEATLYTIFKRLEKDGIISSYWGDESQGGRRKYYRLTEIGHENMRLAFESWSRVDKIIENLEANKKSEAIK

[2] = system: LmrR-Strep (Lactococcus lactis); assay: MST; settings: apparent Kd, MST: 20 mM Tris-HCl pH 8.0, 1 mM EDTA, 50 nM Cy5-DNA, 30 min incubation at 30 C, 30% LED, 40% laser power (30% laser for PlmrR), Hill fit

Substance: ACTACTTTACATTAAATTGAATTTTCAATTTCATTTTACTTCAAAATAATTTCAATAAATTTTTTGAGAAGATAATTATAACATTATTTTTTTTAGTAAACAAGCATTAATTGTTAATGCTGTTAAAGATTACAATAGTTAGTTTCATAAATGGTAAACTAACAAAAATATTGTAACGCTTTTTAAAGTTTAAGTCAACGATTTACGACGTTATTTGTATCTTCTTATGTTTTTATAAATTTAGAATTTAAAGTAAGGAATGAATCG (double strand) [PlmrCD no PadR (half of PadR motif deleted)]
- binding [1]: no binding

Substance: CTCCTTGTTTTAGGACATTGAGCAAAATTACATTGGTTTGGGCTCGTAACATTTCTTTTGGTATTTCTGCCATTCTTTTTCCTTTCTATCATTTTAAACAAAGTATATTATACTTCACATTACTATGTAAGTCAAGGTACTTAAACTATTTATATAATATTTTATTTTTGACGACTTTCTACTATATAAGATAAGAAAAAATCATCTCCG (double strand) [PlmrR (lmrR promoter/operator region)]
- Kd [1]: 1400 nM

Substance: PlmrCD (lmrCD promoter/operator region)
- Kd ([2]; 50 uM riboflavin): 195 nM
- Kd ([2]; no riboflavin, Hill coefficient 1.78 +/- 0.17): 82.1 nM

Substance: PlmrCD -62bp
- Kd ([2]; no riboflavin): 62 nM

Substance: PlmrR (lmrR promoter/operator region)
- Kd ([2]; 50 uM riboflavin, 30% laser power): 5120 nM
- Kd ([2]; no riboflavin, Hill coefficient 2.43 +/- 0.19, 30% laser power): 1400 nM

Substance: TTCTAGAGTTAAATAATGTAAACTACTTTACATTAAATTGAATTTTCAATTTCATTTTACTTCAAAATAATTTCAATAAATTTTTTGAGAAGATAATTATAACATTATTTTTTTTAGTAAACAAGCATTAATTGTTAATGCTGTTAAAGATTACAATAGTTAGTTTCATAAATGGTAAACTAACAAAAATATTGTAACGCTTTTTAAAGTTTAAGTCAACGATTTACGACGTTATTTGTATCTTCTTATGTTTTTATAAATTTAGAATTTAAAGTAAGGAATGAATCG (double strand) [PlmrCD -62bp]
- Kd [1]: 62 nM
